Measurements from PMC9839326 (Science Advances, 2023).

Target: cytochrome f (Cyt f) of spinach Cyt b6f (spinach (Spinacia oleracea), UniProt P16013 36-320)
Assay: cryo-EM structure

Chain of cytochrome f (Cyt f) of spinach Cyt b6f (P16013 36-320): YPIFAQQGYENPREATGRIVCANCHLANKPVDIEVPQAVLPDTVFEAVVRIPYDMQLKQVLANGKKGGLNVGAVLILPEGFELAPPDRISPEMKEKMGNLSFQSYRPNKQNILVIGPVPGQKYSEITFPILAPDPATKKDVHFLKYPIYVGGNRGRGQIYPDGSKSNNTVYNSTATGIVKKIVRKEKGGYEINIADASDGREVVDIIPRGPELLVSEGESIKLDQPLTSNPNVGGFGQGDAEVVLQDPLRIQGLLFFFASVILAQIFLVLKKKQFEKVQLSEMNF

B1: plastocyanin (PC) from spinach (natural protein)
chain: VEVLLGGGDGSLAFLPGDFSVASGEEIVFKNNAGFPHNVVFDEDEIPSGVDAAKISMSEEDLLNAPGETYKVTLTEKGTYKFYCSPHQGAGMVGKVTVN
B1: binds.
